In this assay the target is T1, human CD25 (Homo sapiens, UniProt P01589).
T1 sequence (P01589 22-272): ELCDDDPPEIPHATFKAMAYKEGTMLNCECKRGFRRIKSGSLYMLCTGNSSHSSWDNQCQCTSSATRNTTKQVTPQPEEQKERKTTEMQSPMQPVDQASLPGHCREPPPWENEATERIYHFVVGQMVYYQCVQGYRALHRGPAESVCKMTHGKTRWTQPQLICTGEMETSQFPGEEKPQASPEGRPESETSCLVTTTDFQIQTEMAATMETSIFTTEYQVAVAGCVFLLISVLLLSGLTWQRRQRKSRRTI
As to the kind of experiment: Binding of ADCT-301 to human CD25. Conditions: stated in words only.

The results in this text go back to patent US20200405873A1, “PYRROLOBENZODIAZEPINE-ANTIBODY CONJUGATES” (MEDIMMUNE LIMITED, priority 2015, published 2020).

On to “ADCT-301: ADC of human anti-CD25 monoclonal antibody HuMax-TAC conjugated through a cleavable linker to PBD dimer cytotoxin SG3199”, for which the “affinity to human CD25” value is “picomolar”.
